Experimental data: publication PMC11933685 (Nature Communications, 2025)

Molecular target: T1, recombinant mouse neuropilin-1 (C-6His, #C11R; NRP-1) (mouse, UniProt P97333 22-856)
T1 sequence (looked up): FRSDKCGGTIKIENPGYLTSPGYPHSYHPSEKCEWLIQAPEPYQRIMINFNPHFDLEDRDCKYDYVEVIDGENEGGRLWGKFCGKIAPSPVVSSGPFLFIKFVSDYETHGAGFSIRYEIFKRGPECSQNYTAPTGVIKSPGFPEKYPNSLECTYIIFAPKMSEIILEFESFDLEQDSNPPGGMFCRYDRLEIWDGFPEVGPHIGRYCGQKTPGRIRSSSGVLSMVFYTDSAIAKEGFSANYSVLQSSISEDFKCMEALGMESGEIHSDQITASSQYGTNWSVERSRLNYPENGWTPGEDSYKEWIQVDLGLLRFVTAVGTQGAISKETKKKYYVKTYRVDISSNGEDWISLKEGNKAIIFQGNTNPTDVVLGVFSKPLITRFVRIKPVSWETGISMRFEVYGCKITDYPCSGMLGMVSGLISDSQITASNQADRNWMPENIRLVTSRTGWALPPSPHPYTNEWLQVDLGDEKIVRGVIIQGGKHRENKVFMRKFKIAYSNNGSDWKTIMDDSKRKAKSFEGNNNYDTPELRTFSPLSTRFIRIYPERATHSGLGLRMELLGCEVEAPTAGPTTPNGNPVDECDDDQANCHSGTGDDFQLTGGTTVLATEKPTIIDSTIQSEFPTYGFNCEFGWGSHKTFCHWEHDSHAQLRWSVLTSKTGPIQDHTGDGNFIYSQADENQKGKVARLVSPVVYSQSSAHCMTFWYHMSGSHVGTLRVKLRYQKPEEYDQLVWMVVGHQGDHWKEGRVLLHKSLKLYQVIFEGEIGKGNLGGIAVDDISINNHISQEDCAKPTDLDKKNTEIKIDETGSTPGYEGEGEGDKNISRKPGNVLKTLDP
Test: SPR

Kd: 6.49 µM
B1: cancer homing peptide (CHP, CGNKRTR), free peptide (peptide)
peptide: CGNKRTR
